In article PMC4749557, “ETO family protein Mtgr1 mediates Prdm14 functions in stem cell maintenance and primordial germ cell formation” (eLife, 2015):
Residue numbers refer to the chain shown, from its start. In names and notes the source's numbering stands.

T1: recombinant Prdm14 pre-SET+SET domains (residues 184–373) (mouse, UniProt E9Q3T6 184-373, biotin (biotin-acceptor tag))
T1 construct: gene assembled from synthetic oligonucleotides in the pHBT vector; a TEV site lies between the tags and the protein; also called mouse Prdm14; source: E. coli BL21 (DE3) with pBirACm and 50 μM biotin, purified (Ni-Sepharose); not shown: biotin-acceptor tag, N-terminal, kept
T1 sequence (looked up): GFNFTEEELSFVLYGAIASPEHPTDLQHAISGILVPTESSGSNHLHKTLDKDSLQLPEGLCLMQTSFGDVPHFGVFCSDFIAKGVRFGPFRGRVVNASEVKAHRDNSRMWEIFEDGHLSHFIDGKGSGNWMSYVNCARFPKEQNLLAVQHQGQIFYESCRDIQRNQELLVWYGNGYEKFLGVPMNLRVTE

T2: recombinant Prdm14 (residues 184–373) E294K (mouse, UniProt E9Q3T6 184-373, E294K, biotin (biotin-acceptor tag))
T2 construct: also called E294K Prdm14; source: E. coli BL21 (DE3) with pBirACm and 50 μM biotin, purified (Ni-Sepharose); not shown: biotin-acceptor tag, N-terminal, kept
T2 sequence (looked up): T1 sequence (looked up) with E111K

B1: recombinant Mtgr1 NHR1 domain (residues 98–206) (domain or fragment, mouse, UniProt O70374 98-206, looked up)
chain: LPATCGARQLSKLKRFLTTLQQFGNDISPEIGEKVRTLVLALVNSTVTIEEFHCKLQEATNFPLRPFVIPFLKANLPLLQRELLHCARAAKQTPSQYLAQHEKLLLNTS
modifications: biotin (biotin-acceptor tag)
notes: Mtgr1 (Cbfa2t2), residues 98–206 (NHR1/TAFH domain), with H200K from a cloning artifact; pHBT vector; a TEV site lies between the tags and the protein; also called wt Mtgr1; source: E. coli BL21 (DE3) with pBirACm and 50 μM biotin, purified (Ni-Sepharose); not shown: biotin-acceptor tag, N-terminal, kept
B2: recombinant Mtgr1 NHR1 domain (residues 98–206) K109E (domain or fragment, mouse, UniProt O70374 98-206, looked up)
chain: B1 chain with K12E
modifications: biotin (biotin-acceptor tag)
notes: Mtgr1 (Cbfa2t2), residues 98–206, K109E on the pHBT construct that carries H200K; also called Mtgr1(K109E); source: E. coli BL21 (DE3) with pBirACm and 50 μM biotin, purified (Ni-Sepharose); not shown: biotin-acceptor tag, N-terminal, kept
B3: Mb(hPRDM14_S4) displayed on the yeast surface (designed binder)
chain: VSSVPTKLEVVAATPTSLLISWDAPAVTVDLYFITYGETGGNSPVQKFTVPGSKSTATISGLKPGVDYTITVYAQYYYRGWYVGSPISINYRT
B4: human PRDM14 (residues 238–487) (domain or fragment, UniProt Q9GZV8 238-487, looked up)
chain: LPQTLDKDSLQLPEGLCLMQTVFGEVPHFGVFCSSFIAKGVRFGPFQGKVVNASEVKTYGDNSVMWEIFEDGHLSHFIDGKGGTGNWMSYVNCARFPKEQNLVAVQCQGHIFYESCKEIHQNQELLVWYGDCYEKFLDIPVSLQVTEPGKQPSGPSEESAEGYRCERCGKVFTYKYYRDKHLKYTPCVDKGDRKFPCSLCKRSFEKRDRLRIHILHVHEKHRPHKCSTCGKCFSQSSSLNKHMRVHSGDR
modifications: biotin (biotin-acceptor tag)
notes: vector based on p28BIOH-LIC; expression vector from the Structural Genomics Consortium; also called hPRDM14; source: E. coli BL21 (DE3) with pBirACm and 50 μM biotin, purified (Ni-Sepharose); not shown: biotin-acceptor tag, N-terminal, kept

What was measured:
[1] = molecular target: T1, recombinant Prdm14 pre-SET+SET domains …; test: bead-based binding assay; biotinylated Prdm14 immobilised on streptavidin M280 beads, biotinylated Mtgr1 (NHR1) in solution, detected with SAV-Dylight650 by flow cytometer; 50 mM Tris–HCl, 150 mM NaCl, pH 8, 1 mg/ml BSA, 1 mM EDTA, 0.1 mM DTT; 1:1 model; details: both partners purified
[2] = molecular target: T2, recombinant Prdm14 (residues 184–373) …; test: bead-based binding assay; biotinylated Mtgr1 (NHR1) immobilised on streptavidin M280 beads, biotinylated Prdm14 in solution, detected with SAV-Dylight650 by flow cytometer; 50 mM Tris–HCl, 150 mM NaCl, pH 8, 1 mg/ml BSA, 1 mM EDTA, 0.1 mM DTT; 1:1 model; details: both partners purified
[3] = molecular target: B4; test: yeast surface display; KD of monobody clones displayed on yeast for hPRDM14; details: one partner purified
[4] = molecular target: B3; test: yeast surface display; monobodies on the yeast surface with 50 nM of hPRDM14 or a homologue; details: one partner purified

B1
binding result [1]: binds

B2
binding result [2]: binds

B3
Kd [3]: < 100 nM

B4
fold stronger binding than hPRDM6 and hPRDM12 [4]: ≥ 5 fold
